Assay [1] addresses N-acetylneuraminate lyase from Aliivibrio salmonicida LFI1238, construct with C-terminal His6-tag (Aliivibrio salmonicida LFI1238). Nature of the assay: crystal structure; crystals from 25% PEG 1.5 K and 20% glycerol; space group I222, one molecule in the asymmetric unit; tetramer generated by crystallographic symmetry; 1.65 A.
Assay [2] addresses N-acetylneuraminate lyase from Aliivibrio salmonicida LFI1238, construct with TEV-cleavable N-terminal His6-tag (Aliivibrio salmonicida LFI1238). Nature of the assay: SEC; Superdex 200 prep grade HiLoad 16/60 in 50 mM Tris-HCl pH 7.5, 500 mM NaCl, 5 mM beta-ME, 10% glycerol; room temperature. On the technique in general: SEC sorts molecules by how far they enter the pores of the column.

Assay [3] shares this target. Put plainly: native gel or EMSA; native PAGE of purified AsNAL (2.75 ug) beside NativeMark unstained protein standard. On the technique in general: A gel shift assay detects complexes by their altered migration in electrophoresis.

As a reminder, the stoichiometry N is the number of molecules, sites or subunits per partner or assembly. For “N-acetylneuraminate lyase from Aliivibrio salmonicida LFI1238, construct with C-terminal His6-tag (enzyme)”, the stoichiometry N in assay [1] amounted to 4.

As to “N-acetylneuraminate lyase from Aliivibrio salmonicida LFI1238, construct with TEV-cleavable N-terminal His6-tag (enzyme)”, the stoichiometry N in assay [2] and in assay [3] was 4 throughout.

Source of the values: paper PMC6559660.
